Paper PMC3048900

How the values were obtained:
[1] = target: Asp19 (UniProt position 362, WTGMIDGWYGY); test: NMR; conditions: DPC micelle-bound helical hairpin
[2] = target: Glu11 (UniProt position 354, IAGFIEGGWTG); test: NMR; conditions: DPC micelle-bound helical hairpin

Substance: Hemagglutinin HA2 fusion peptide HAfp23 (Influenza A virus (serotype H1; strain not stated))
- pKa [1]: 4.35±0.02
- pKa [2]: 5.31±0.01
